In one assay the target is T1, FLAG-tagged mTRF2ΔN-49 (mouse, UniProt O35144 94-541).
T1 construct: also called mTRF2 DN-49; deletion mutant mTRF2ΔN-49
T1 sequence: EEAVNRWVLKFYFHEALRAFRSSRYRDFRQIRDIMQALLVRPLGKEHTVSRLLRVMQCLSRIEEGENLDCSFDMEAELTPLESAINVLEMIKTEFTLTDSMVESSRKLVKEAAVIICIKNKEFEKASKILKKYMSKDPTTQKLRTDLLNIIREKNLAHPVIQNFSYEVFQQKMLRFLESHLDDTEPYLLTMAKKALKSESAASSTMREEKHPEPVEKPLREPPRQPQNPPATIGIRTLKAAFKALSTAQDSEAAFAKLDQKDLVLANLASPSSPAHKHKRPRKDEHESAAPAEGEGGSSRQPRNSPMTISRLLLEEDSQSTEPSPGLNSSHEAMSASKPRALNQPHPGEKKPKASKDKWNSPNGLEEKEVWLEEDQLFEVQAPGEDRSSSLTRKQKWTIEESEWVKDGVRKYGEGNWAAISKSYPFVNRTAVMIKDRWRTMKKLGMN
As to the kind of experiment: gel-shift assay on extracts of transfected HeLa cells; level of the hTRF1 homodimer complex unaltered. From the text: This new activity was present in excess over the endogenous hTRF1 activity and could be super-shifted with the FLAG antibody (FIG. 10B, lane 4). The mTRF2ΔN-49 mutant protein was also found to localize to telomeric loci in transfected cells (see below). […] Acids Res., 24:1294-303 (1996)].
Absence of heterodimer formation was further corroborated by co-immunoprecipitation of in vitro translation products (FIG. 12B). […] The lack of heterodimerization is also consistent with the gel-shift assays on extracts from cells over-expressing mTRF2ΔN-49 (FIG. 10B). […] In similar experiments executed with FLAG-tagged hTRF 1, heterodimerization between the endogenous TRF1 and the transfected protein is consistently detected.

The next assay concerns the target T2, untagged mTRF2 (mouse, UniProt O35144 46-541, limits assumed).
T2 construct: In vitro translated and 35S-methionine labelled; also called mouse TRF2
T2 sequence: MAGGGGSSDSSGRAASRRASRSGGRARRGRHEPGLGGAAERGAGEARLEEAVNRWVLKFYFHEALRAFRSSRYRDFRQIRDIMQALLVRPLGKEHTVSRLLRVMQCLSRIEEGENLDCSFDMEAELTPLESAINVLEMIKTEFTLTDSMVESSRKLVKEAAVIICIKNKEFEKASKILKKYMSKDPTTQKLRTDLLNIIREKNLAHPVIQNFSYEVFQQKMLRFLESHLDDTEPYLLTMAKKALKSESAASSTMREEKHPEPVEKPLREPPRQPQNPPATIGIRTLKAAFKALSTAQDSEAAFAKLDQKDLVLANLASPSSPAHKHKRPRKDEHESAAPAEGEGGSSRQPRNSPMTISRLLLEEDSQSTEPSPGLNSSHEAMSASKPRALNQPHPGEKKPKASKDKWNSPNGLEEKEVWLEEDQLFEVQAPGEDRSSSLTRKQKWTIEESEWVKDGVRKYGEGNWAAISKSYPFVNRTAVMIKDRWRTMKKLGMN
In words: co-immunoprecipitation of in vitro translated 35S-labelled proteins with M2 anti-FLAG antibody. From the text:
(§1) FIG. 12: TRF2 interacts with TRF2 but not with TRF1. […] Values represent an average of three to nine independent transformants. FIG. 12B depicts in vitro translated ³⁵S-methionine labelled TRF1 and TRF2 proteins with or without an N-terminal FLAG tag (indicated above the lanes) were immunoprecipitated using the M2 anti-FLAG antibodies and analyzed by autoradiography.
Co-immunoprecipitation experiments. The human and mouse TRF1 constructs used were previously described [Chong et al., Science, 270:1663-1667 (1995); Broccoli et al., Hum. Mol. Genetics, 6:69-76 (1997); Bianchi et al., supra (1997)]. The FLAG-tagged mTRF2 and untagged mTRF2 were translated from cDNAs described above. ³⁵S-methionine labelled proteins [Chong et al., Science, 270:1663-1667 (1995); Broccoli et al., Hum. Mol. Genetics, 6:69-76 (1997); Bianchi et al., supra, (1997)] were immunoprecipitated using the M2 anti-FLAG antibody in buffer D (20 mM Hepes-KOH pH 7.9, 100 mM KCl, 20% glycerol, 0.2 mM EDTA, 0.2 mM EGTA, 0.1 % NP40, 0.1 % Triton-X-100, 0.5 mM DTT, 0.5 mM PMSF) followed by four washes in buffer D with detergents and two washes in buffer D without detergent. Pellets were suspended in SDS/PAGE loading buffer and resolved on a 9% SDS-polyacrylamide gel.

In assay [1] the target is T3, hTRF2 dimerization domain (amino acid 45 to amino acid 246), LexA and GAD fusion proteins (human, UniProt Q15554 87-288).
T3 construct: Built both as a LexA and as a GAD fusion; also called dimerization domain of hTRF2; not shown: two-hybrid fusion partner, LexA or GAD depending on the construct (vectors pBTM116 and pACT2)
T3 sequence: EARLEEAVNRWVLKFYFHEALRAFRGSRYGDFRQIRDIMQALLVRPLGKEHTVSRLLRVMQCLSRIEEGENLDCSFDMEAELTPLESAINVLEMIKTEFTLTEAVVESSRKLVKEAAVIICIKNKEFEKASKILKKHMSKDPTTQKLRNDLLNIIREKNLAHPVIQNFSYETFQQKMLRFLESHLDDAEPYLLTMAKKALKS
As to the kind of experiment: yeast 2-hybrid, b-galactosidase activity.
From the text: as §1
Next the yeast 2-hybrid assay was used to determine whether the dimerization domains of TRF1 and TRF2 can interact. In a large number of trials, no convincing interactions between these proteins in two settings were detected (FIG. 12A). No activation occurred when the dimerization domain of TRF2 was probed for interactions with full length TRF1. In addition, no significant interactions were observed between fusion proteins containing the isolated TRF1 and TRF2 dimerization domains. The weak b-galactosidase activity detected with these proteins is probably due to the inherent slight transactivation activity of the TRF1 dimerization domain (FIG. 12A) which has been noted previously [Bianchi et al., supra, (1997)].

Results on three molecules are retold here after patent US20020076719A1 (ROCKEFELLER UNIVERSITY, published 2002).

B1: hTRF1 (endogenous, HeLa cells) (other)
chain: AEDVSSAAPSPRRCADGRDADPTEEQMAETERNDEEQFECQELLECQVQVGAPEEEEEEEEDAGLVAEAEAVAAGWMLDFLCLSLCRAFRDGRSEDFRRTRNSAEAIIHGLSSLTACQLRTIYICQFLTRIAAGKTLDAQFENDERITPLESALMIWGSIEKEHDKLHEEIQNLIKIQAIAVCMENGNFKEAEEVFERIFGDPNSHMPFKSKLLMIISQKDTFHSFFQHFSYNHMMEKIKSYVNYVLSEKSSTFLMKAAAKVVESKRTRTITSQDKPSGNDVEMETEANLDTRKSVSDKQSAVTESSEGTVSLLRSHKNLFLSKLQHGTQQQDLNKKERRVGTPQSTKKKKESRRATESRIPVSKSQPVTPEKHRARKRQAWLWEEDKNLRSGVRKYGEGNWSKILLHYKFNNRTSVMLKDRWRTMKKLKLISSDSED
notes: also called endogenous TRF1; human TRF1
For B1, the binding result in the assay with FLAG-tagged mTRF2ΔN-49 is “no binding”.

B2: FLAG-mTRF1 (mouse TRF) (other, UniProt P70371 2-421, looked up)
chain: AETVSSAARDAPSREGWTDSDSPEQEEVGDDAELLQCQLQLGTPREMENAELVAEVEAVAAGWMLDFLCLSLCRAFRDGRSEDFRRTRDSAEAIIHGLHRLTAYQLKTVYICQFLTRVASGKALDAQFEVDERITPLESALMIWNSIEKEHDKLHDEIKNLIKIQAVAVCMEIGSFKEAEEVFERIFGDPEFYTPLERKLLKIISQKDVFHSLFQHFSYSCMMEKIQSYVGDVLSEKSSTFLMKAATKVVENEKARTQASKDRPDATNTGMDTEVGLNKEKSVNGQQSTETEPLVDTVSSIRSHKNALSQLKHRRAPSDFSRNEARTGTLQCETTMERNRRTSGRNRLCVSENQPDTDDKSGRRKRQTWLWEEDRILKCGVKKYGEGNWAKILSHYKFNNRTSVMLKDRWRTMKRLKLIS
notes: The co-IP construct is 'previously described'; also called FLAG tagged mouse TRF; not shown: FLAG tag
On to B2, for which the binding result with untagged mTRF2 is “no binding”.

B3: hTRF1 dimerization domain, LexA and GAD fusion proteins (other)
chain: LVAEAEAVAAGWMLDFLCLSLCRAFRDGRSEDFRRTRNSAEAIIHGLSSLTACQLRTIYICQFLTRIAAGKTLDAQFENDERITPLESALMIWGSIEKEHDKLHEEIQNLIKIQAIAVCMENGNFKEAEEVFERIFGDPNSHMPFKSKLLMIISQKDTFHSFFQHFSYNHMMEKIKSYVNYVLSEKSSTFLMKAAAKV
notes: also called isolated TRF1 dimerization domain; homodimerization domain of TRF1; not shown: two-hybrid fusion partner, LexA or GAD
For the molecule B3, the binding result in assay [1] is reported as “no binding”.
